Test results taken from patent US8303957B2, “Mutated immunogenic peptides derived from R9M, polynucleotides coding for same and therapeutic uses thereof” (Institut Pasteur, priority 2000, dated 2012).
“And” between values parts separate entries of the source, which are not always exact repeats. Equal entries are not always repeated. “Also recorded” adds a separate entry of the source. Marks after values point to notes of the source that are not given here. Non-standard residues stand in square brackets, D forms with d. No end group written: not given here. Abu = CC[C@H](N)C(=O)O

What was measured:
[1] = biological target: T1, HLA-A2.01 molecule (Homo sapiens, UniProt P04439, D140Y/D185E/D98H/E176V/E277Q/G131W/G231S/I119V/I121R/I166T/I218V/L300P/L318F/N151K/N90K/P208A/P217A/Q86G/Q94H/R138H/R169H/T345S); assay: Stabilization of HLA-A2.01 molecules at the surface of T2 cells (RA and DC50); assay type: binding; conditions: for Measurement of stabilization DC50 (half-life of peptide-HLA-A2.1 stabilized complexes): overnight incubation, indirect immunofluorescence/FACS at 0, 2, 4 and 5 h; for Measurement of stabilization RA: ratio of concentrations of tested versus reference peptide to attain 20% of maximal number of stabilized molecules
T1 construct: stability conferred on the peptide MHC complex thus formed at the cell surface by using tap T2 cells expressing HLA-A*02.01; endogenous in cells; host or cells: T2 cells
From the text: A person well-acquainted with the field of the invention will know how to obtain different mutated and derived peptides and will also know how to determine which of all of the peptides obtained are the peptides having adequate biological activity. […] The term DC50 characterizing the half-life of the peptide HLA-A2.01 complex is described in the publication “H-2 class 1 knockout, HLA-A2.1-transgenic mice: a versatile animal model for preclinical evaluation of antitumor immunotherapeutic strategies” (European Journal of Immunology: 29:3112-21, 1999). This half-life ought normally to make it capable of inducing in vivo or in vitro a cytotoxic immune response. Preferably, the peptide obtained will slow down the growth of lymphoblastic tumor cells when administered to a leukemic receiver and will trigger a cytotoxic T response to the leukemic cells of common type B-ALL with t(12;21) of the leukemic receiver.
It is known that the affinity of an epitopic peptide for the MHC predicts in part its immunogenic potential. This affinity can be measured by its binding capacity to class I MHC and by the stability conferred on the peptide MHC complex thus formed at the cell surface by using tap T2 cells expressing HLA-A*02.01.
These preliminary results have subsequently been used to optimize further the R9M peptide. […] The binding tests performed in vitro by using the soluble HLA-A2.01 molecules and T2 cells have shown that the binding to and the stabilization capacity for the HLA-A2.01 molecules was greater than that of the wildtype R9M peptide (Table 2).

[2] = system: RMAS-HHD cells stimulated with the wildtype peptide; assay: Secondary CTL response of immunized HHD mice against RMAS-HHD cells stimulated with the wildtype peptide; assay type: in vivo; conditions: responder = at least 10% specific lysis, targets with wildtype peptide
From the text: (§1) The immunogenicity of the mutated peptides was then studied in the HHD transgenic mouse (H2 class 1—negative and transgenic for HLA-A*02.01). These mice are described in European Journal of Immunology, 29:3112-21, 1999. Groups of more than 10 HHD mice were immunized by the synthetic peptides (emulsion in IFA with the helper peptide HBVcore128-140 as described previously in Firat et al., Eur. J. Immunol. 29:3112-21 (1999)).
(§2) On the other hand, the mutated peptides (having single or double substitutions) induce a strong CTL activity and lyse the TEL AML* tumor lines in the majority of cases (Table 3 and Table 4). The enhanced immunogenicity of the mutated R9M peptides was then confirmed in vitro by using mononucleated cells of 5 healthy HLA-A*02.01 subjects (FIG. 2).

[3] = system: TEL/AML+ EL4-HHD cells; assay: Tertiary CTL response of immunized HHD mice against TEL/AML+ EL4-HHD cells; assay type: in vivo; conditions: responder = at least 10% specific lysis, TEL/AML+ EL4-HHD targets
From the text: as §1, §2

[4] = system: EL4 S3-Rob-HHD cells expressing the TEL/AML1 fusion protein; assay: Tumor model in HHD mice immunized with peptide and injected with tumor cells; conditions: groups of 8 HHD mice immunized beforehand; for development of tumors (in words): FIG. 3; for survival of the mice (in words): FIG. 4
[5] = biological target: T1, HLA-A2.01 molecule; assay: Inhibition of binding of 125I-F10V (HBVc.18-27) to soluble HLA-A2.01 molecules
Description: The product of the chimeric genes resulting from the translocation (12;21) is a neoprotein which is expressed in the leukemic cells of common B-ALL type and which can be detected by Western blot. […] In a first step, the capacity of 9 junctional nonapeptides to inhibit the binding to soluble HLA-A*0201 was measured.

[6] = system: RMAS-HHD cells stimulated with the mutated peptide; assay: Tertiary CTL response of immunized HHD mice against RMAS-HHD cells stimulated with the mutated peptide; assay type: in vivo; conditions: for R/T (mice responders versus total of mice tested): responder = at least 10% specific lysis, targets with mutated peptide
From the text: as §1, §2

[7] = system: RMAS-HHD cells stimulated with the mutated peptide; assay: Secondary CTL response of immunized HHD mice against RMAS-HHD cells stimulated with the mutated peptide; assay type: in vivo; conditions: for R/T (mice responders versus total of mice tested): responder = at least 10% specific lysis
From the text: as §1, §2

[8] = system: HLA-A2.1*T2 target cells; conditions: results in the public domain; cited from earlier work
[9] = secondary response, targets with mutated peptide

| Measurement of stabilization DC50 (half-life of peptide-HLA-A2.1 stabilized complexes) [1] [h] | Measurement of stabilization RA [1] | percentage inhibition of the binding of F10V, ratio peptide/125I-F10V 10/1 [5] | percentage inhibition of the binding of F10V, ratio peptide/125I-F10V 25/1 [5] [%] | Substance | R/T (mice responders versus total of mice tested) [2] | R/T (mice responders versus total of mice tested) [3] | R/T (mice responders versus total of mice tested) [6] | R/T (mice responders versus total of mice tested) [7, 9] | also measured |
| --- | --- | --- | --- | --- | --- | --- | --- | --- | --- |
| <2 | >100 | – | – | YIGRIAECI [Y9I] | – | – | – | – | – |
| 2 to 5 | 0.9 | 79% | 87 | YIAEAILGM [Y9M-5A] | 7/10 | 5/10 | 9/10 | 8/10 | – |
| <2 | 2.9 | 64% | 69 | RIAECILGM (listed as Homo sapiens) [R9M, reference compound] | – | 5/10 | 2/10 | 1/18 | stability of the peptide/HLA-A2.01 complex at the surface of T2 cells (in words) [1]: quite unstable; also recorded: not very stable; capacity to induce CTLs from the peripheral blood of healthy donors (in words) [8]: has been demonstrated; % of clear lysis (maximal lysis for each mouse responder) ([7]; secondary response, E/T ratio 60:1, targets with mutated peptide): (13) %; CTL response induced in immunized HLA-A2.01 transgenic (HHD) mice (in words) ([7]; synthetic peptide in IFA with helper peptide HBVcore128-140): inconstancy and the weakness of the CTL responses induced; also recorded: inconstancy and weakness of the CTL responses induced; also recorded: weak specific CTL response |
| 2 to 4 | 10-100 | 47^d % | 57 | AMPIGRIAE [A9E] | – | – | – | – | – |
| 2 to 5 | 1.4 | 25% | 37 | YIAESILGM [Y9M-5S] | 3/10 | 6/10 | 9/10 | 9/10 | – |
| 0 | >100 | – | – | PIGRIAECI [P91] | – | – | – | – | – |

Continued, substance first:

| Substance | Measurement of stabilization DC50 (half-life of peptide-HLA-A2.1 stabilized complexes) [1] [h] | Measurement of stabilization RA [1] | percentage inhibition of the binding of F10V, ratio peptide/125I-F10V 10/1 [5] | percentage inhibition of the binding of F10V, ratio peptide/125I-F10V 25/1 [5] [%] | R/T (mice responders versus total of mice tested) [2] | R/T (mice responders versus total of mice tested) [3] | R/T (mice responders versus total of mice tested) [6] | R/T (mice responders versus total of mice tested) [7, 9] | also measured |
| --- | --- | --- | --- | --- | --- | --- | --- | --- | --- |
| RIAEAILGM [R9M-5A] | <2 | 3.2 | 59% | 72 | 2/10 | 6/10 | 1/10 | 2/10 | development of tumors (in words) [4]: capable of slowing down the development of tumors; survival of the mice (in words) [4]: prolonging the survival of the mice; % of clear lysis (maximal lysis for each mouse responder) ([6]; E/T ratio 60:1, targets with mutated peptide): (20) % |
| RIAESILGM [R9M-5S] | 2 | 2.2 | 74% | 75 | 6/14 | 11/14 | 6/10 | 11/14 | development of tumors (in words) [4]: capable of slowing down the development of tumors; survival of the mice (in words) [4]: prolonging the survival of the mice |
| YIAEα-butILGM (YIAE[Abu]ILGM) [Y9M-5α-but] | 2 to 5 | 0.7 | 26% | 26 | – | – | – | – | – |
| RIAEα-butILGM (RIAE[Abu]ILGM) [R9M-5α-but] | 2 | 2 | 27% | 49 | – | – | 8/10 | – | R/T (mice responders versus total of mice tested) ([2]; listed as R9M-5a-but): 5/10 and 8/10; R/T (mice responders versus total of mice tested) ([3]; listed as R9M-5a-but): 7/10 and 10/10; development of tumors (in words) [4]: capable of slowing down the development of tumors; survival of the mice (in words) [4]: prolonging the survival of the mice; R/T (mice responders versus total of mice tested) ([7]; secondary response, targets with mutated peptide, listed as R9M-5a-but): 7/10 and 8/10 |
| YIAECILGM [Y9M] | <2 | >100 | – | – | – | – | – | – | – |
| ILKEPVHGV [HIV 1 rt.476, reference compound] | 5 | 1 | – | – | – | – | – | – | – |
| YMPIGRIAE [Y9E] | 0 | >100 | – | – | – | – | – | – | – |
